B1: K9-6N6.1 variant LC-S28A (clone 2A2) (antibody, V domains shown)
VH: QLQLQESGPGLVKPSETLSLTCTVSGGSINSSSYYWGWLRQSPGKGLEWIGSFFYTGSTYYNPSLRSRLTISVDTSKNQFSLMLSSVTAADTAVYYCARQSTYYYGSGNYYGWFDRWDQGTLVTVSS
VL: EIVLTQSPATLSLSPGERATLSCRASQAVSSYLAWYQQKPGQAPRLLIYDASNRATGIPARFSGSGSGTDFTLTISSLEPEDFAVYYCQQRSNWPPAFGQGTKVEIKR
B2: K9-6N6.1 (antibody)
heavy: QLQLQESGPGLVKPSETLSLTCTVSGGSINSSSYYWGWLRQSPGKGLEWIGSFFYTGSTYYNPSLRSRLTISVDTSKNQFSLMLSSVTAADTAVYYCARQSTYYYGSGNYYGWFDRWDQGTLVTVSSASTTAPSVFPLAPSCGSTSGSTVALACLVSGYFPEPVTVSWNSGSLTSGVHTFPSVLQSSGLYSLSSMVTVPSSRWPSETFTCNVAHPASKTKVDKPVPKRENGRVPRPPDCPKCPAPEMLGGPSVFIFPPKPKDTLLIARTPEVTCVVVDLDPEDPEVQISWFVDGKQMQTAKTQPREEQFNGTYRVVSVLPIGHQDWLKGKQFTCKVNNKALPSPIERTISKARGQAHQPSVYVLPPSREELSKNTVSLTCLIKDFFPPDIDVEWQSNGQQEPESKYRTTPPQLDEDGSYFLYSKLSVDKSRWQRGDTFICAVMHEALHNHYTQESLSHSPGK
light: EIVLTQSPATLSLSPGERATLSCRASQSVSSYLAWYQQKPGQAPRLLIYDASNRATGIPARFSGSGSGTDFTLTISSLEPEDFAVYYCQQRSNWPPAFGQGTKVEIKRNDAQPAVYLFQPSPDQLHTGSASVVCLLNSFYPKDINVKWKVDGVIQDTGIQESVTEQDKDSTYSLSSTLTMSSTEYLSHELYSCEITHKSLPSTLIKSFQRSECQRVD
notes: Olaratumab HCVR on canine IgB heavy constant region, Olaratumab LCVR on canine kappa constant region; also called parental K9-6N6.1; parent K9-6N6.1
B3: Olaratumab (antibody, human IgG1, kappa)
heavy: not shown
light: not shown
notes: Fully human IgG1 monoclonal antibody; also called IMC-3G3; human Olaratumab

How the values were obtained:
human PDGFRA = human PDGFRA (human, UniProt P16234 24-524, limits assumed); assay: binding ELISA on coated human PDGFRA; parental EC50 divided by variant EC50; pool evaluation
Sequence of human PDGFRA (P16234 24-524 limits assumed): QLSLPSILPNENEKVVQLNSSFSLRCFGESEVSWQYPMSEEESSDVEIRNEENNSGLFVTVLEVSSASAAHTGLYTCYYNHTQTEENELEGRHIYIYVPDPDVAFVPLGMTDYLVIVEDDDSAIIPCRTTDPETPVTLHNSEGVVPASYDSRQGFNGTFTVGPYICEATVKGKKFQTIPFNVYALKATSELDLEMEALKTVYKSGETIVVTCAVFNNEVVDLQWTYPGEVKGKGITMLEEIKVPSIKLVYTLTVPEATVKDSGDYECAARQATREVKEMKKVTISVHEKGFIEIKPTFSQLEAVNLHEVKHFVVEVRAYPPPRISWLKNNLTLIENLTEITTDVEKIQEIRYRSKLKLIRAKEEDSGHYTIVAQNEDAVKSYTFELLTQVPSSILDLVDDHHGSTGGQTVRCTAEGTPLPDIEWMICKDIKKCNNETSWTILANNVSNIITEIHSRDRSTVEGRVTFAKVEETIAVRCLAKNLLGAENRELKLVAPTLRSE

[1] = target: T1, canine platelet derived growth factor receptor alpha (cPDGFRA) (dog, UniProt A0A8I3NAN8 49-553, biotinylated (sites not given) in the blocking ELISA); assay: blocking ELISA: antibody with biotinylated cPDGFRA on coated canine PDGFAA; parental IC50 divided by variant IC50; pool evaluation
T1 construct: The construct is not described; also called biotinylated-cPDGFRA

[2] = target: T2, cPDGFRA extracellular domain (ECD)-Fc fusion protein (dog); assay: titration binding ELISA on coated cPDGFRA-Fc; parental EC50 divided by variant EC50; pool evaluation
T2 construct: extracellular domain; also called cPDGFRA-Fc; cPDGFRA-ECD-Xa-Fc

[3] = target: T2, cPDGFRA extracellular domain (ECD)-Fc …; assay: kinetic binding to PDGFRA-Fc, antibody 30 nM; method not named for Table 1
[4] = target: T1, canine platelet derived growth factor …; assay: blocking ELISA: antibody with biotinylated cPDGFRA on coated canine PDGFAA; unit from paragraph 44
[5] = target: T2, cPDGFRA extracellular domain (ECD)-Fc …; assay: SPR, BIAcore T200, cPDGFRA-ECD-Xa-Fc immobilized, antibody injected, 25 C
Method: The binding kinetics of selected K9-6N6.1 variants to cPDGFRA were measured using a BIAcore T200 instrument (BIAcore, Inc., Piscataway, N.J.). Briefly, a cPDGFRA extracellular domain (ECD)-Fc fusion protein was immobilized on a sensor chip and antibody was injected at various concentrations. Sensograms were obtained at each concentration and evaluated using the BIA Evaluation 3.0 program to determine rate constants. The affinity constant (KD) was calculated from the ratio of rate constants Koff/Kon. The evaluation was performed at 25° C.

[6] = target: T2, cPDGFRA extracellular domain (ECD)-Fc …; assay: comparison of the KD values of Table 1
[7] = target: T2, cPDGFRA extracellular domain (ECD)-Fc …; assay: binding ELISA on coated cPDGFRA-Fc; unit from paragraph 44
human PDGFRA-Fc = target: T3, human PDGFRA-Fc (human, UniProt P16234 24-524, limits assumed); assay: kinetic binding to PDGFRA-Fc, antibody 30 nM; method not named for Table 1
T3 construct: also called PDGFRA-Fc (Human); not shown: Fc
T3 sequence (P16234 24-524 limits assumed): as above

Binder	Human PDGFRA Binding EC50 improvement (fold) over parental K9-6N6.1 (human PDGFRA) [fold]	cPDGFRA Blocking IC50 improvement (fold) over parental K9-6N6.1 [1] [fold]	cPDGFRA Binding EC50 improvement (fold) over parental K9-6N6.1 [2] [fold]	Kd [3] [nM]	koff [3] [s⁻¹]	kon [3] [M⁻¹ s⁻¹]	IC50 [4] [nM]	Improvement (fold) of KD over parent K9-6N6.1 [5] [fold]	Kd [5] [nM]	koff [5] [s⁻¹]	kon [5] [M⁻¹ s⁻¹]	fold lower affinity than Olaratumab binding to human PDGFRA [6] [fold]	EC50 [7] [nM]	Kd (human PDGFRA-Fc) [nM]	koff (human PDGFRA-Fc) [s⁻¹]	kon (human PDGFRA-Fc) [M⁻¹ s⁻¹]
B1	1.83	13.4	1.43	–	–	–	–	–	–	–	–	–	–	–	–	–
B2	–	–	–	1.92	0.00161	840000	31.5	1	4.87	0.00247	508000	~10	0.272	–	–	–
B3	–	–	–	3.44	0.00294	856000	–	–	–	–	–	~10	–	0.307	0.000248	808000
